Measurements taken from patent publication US20250121076A1, “POLYPEPTIDE DRUG CONJUGATE HAVING NOVEL STRUCTURE AND APPLICATION THEREOF” (MEDSHINE DISCOVERY INC., priority 2021, published 2025).
Counter-ions that a name gives are not always drawn. Starred links: 1 amine or outer side, 2 acyl side, 3 side chain; linkers in the order of their positions; H or OH if unused. Positions of bridges follow the written chain, without caps; N, C: chain ends. Non-standard residues stand in square brackets, D forms with d. Residues, ends and D or L forms follow the SMILES beside them. Chains are numbered I, II in the order given. *: point of attachment. TATA = O=C(CC[*:1])N1CN(C(=O)CC[*:2])CN(C(=O)CC[*:3])C1; Dolaproine = CO[C@@H]([C@@H]1CCCN1)[C@@H](C)C(=O)O; Dil = CC[C@H](C)[C@H](NC)[C@@H](CC(=O)O)OC; X2 = O=C(CCCC(=O)[*:2])NCCC(=O)[*:1]; PABC = O=C(OCc1ccc(N[*:1])cc1)[*:2]; X1 = C[C@@H](N*)[C@@H](O)c1ccccc1; Hyp = O=C(O)[C@@H]1C[C@@H](O)CN1; hArg = N=C(N)NCCCC[C@H](N)C(=O)O; Cit = NC(=O)NCCC[C@H](N)C(=O)O; Pen = CC(C)(S)[C@H](N)C(=O)O; NMeV = CN[C@H](C(=O)O)C(C)C; Sar = CNCC(=O)O

Tests used:
[1] = In vivo pharmacokinetic analysis in mice; parameters: species or system CD-1 mice; settings: mouse, in vivo, CD-1 mice, single IV 2 mg/kg, plasma
Experimental: To test the pharmacokinetics of the compounds of the present invention in CD-1 mice
The pharmacokinetic characteristics of the compound after intravenous injection and oral administration were tested in CD-1 mice according to a standard protocol. The compound of the present invention was formulated into a clear solution using 50 mM acetate buffer (pH=5) in 10% sucrose as a vehicle. Two mice were given a single intravenous injection of 2 mg/kg of the compound to be tested. Whole blood was collected at time points of 0.083, 0.25, 0.5, 1, 2, 4, 8, and 24 hours after administration to get plasma. The concentration of the compound to be tested and the concentration of its potential metabolite MMAE were analyzed by the LC-MS/MS method, and the pharmacokinetic parameters, such as maximal concentration (Cmax), clearance (Cl), half-life (T1/2), […] (Vdss), and area under the concentration-time curve (AUC0-last), were calculated by Phoenix WinNonlin software.

Stability in plasma [2] = type: in vitro ADME, Cynomolgus macaques; settings: Cynomolgus macaque plasma, 2 μM, 37° C., up to 240 min
Experimental: (§1) To test the stability of the compounds of the present invention in plasma from rats, Cynomolgus macaques, and humans.
(§2) The corresponding incubation plates, including T0, T10, T30, T60, T120, and T240 incubation plates, were added with a 2 μL working solution of the compound to be tested (100 μM). Three parallel wells were prepared for each sample. Then, 98 μL of blank plasma from SD rats, Cynomolgus macaques, and humans was added to the corresponding incubation plates to which the working solution had been added. All samples were incubated in a 37° C. water bath. […] At the end of each incubation time point, the corresponding incubation plate was removed, added with stop buffer, precipitated, and centrifuged for 20 minutes. Then, 150 μL of the supernatant was analyzed by the LC-MS/MS method. The concentration of the compound to be tested in the sample was semi-quantitatively determined by the liquid chromatography-tandem mass spectrometry (LC-MS/MS) method.

Stability in plasma [3] = type: in vitro ADME, Humans; settings: human plasma, 2 μM, 37° C., up to 240 min
Experimental: as §1, §2

[4] = Stability incubated in human plasma for 72 hours; type: in vitro ADME, Humans
Experimental: as §2
The experimental results obtained using the above method but extending the incubation time of the compound to be tested with human plasma to 72 hours are shown in Table 22.

Stability in whole blood = type: in vitro ADME, SD rats; settings: SD rat whole blood, 2 μM, 37° C.
Experimental: To test the stability of the compounds of the present invention in whole blood from SD rats and Cynomolgus macaques.
The corresponding incubation plates, including T0, T10, T30, T60, T120, and T240 incubation plates, were added with a 2 μL working solution of the compound to be tested (100 μM). Three parallel wells were prepared for each sample. Then, 98 μL of blank whole blood from SD rats and Cynomolgus macaques was added to the corresponding incubation plates to which the working solution had been added. All samples were incubated in a 37° C. water bath. […] At the end of each incubation time point, the corresponding incubation plate was removed, added with stop buffer, precipitated, and centrifuged for 20 minutes. Then, 100 μL of the supernatant was diluted with 300 μL of ultrapure water, mixed uniformly, and then analyzed by the LC-MS/MS method. The concentration of the compound to be tested in the sample was semi-quantitatively determined by the liquid chromatography-tandem mass spectrometry (LC-MS/MS) method.

[5] = Metabolic stability in hepatocytes; type: in vitro ADME, Humans; settings: human hepatocytes, 1 μM, 0.5×10^6 cells/mL
Experimental: To investigate the metabolic stability of the compounds of the present invention in hepatocytes from Cynomolgus macaques and humans.
Incubations were performed in 96-well plates using an external extraction method. Several 96-well sample precipitation plates, designated T0, T15, T30, T60, T90, T0-MC, T90-MC, and blank matrix, were prepared, respectively. The recovery culture medium and incubation culture medium were removed in advance and placed in a 37° C. water bath for preheating. Frozen hepatocytes from Cynomolgus macaques and humans were removed from a liquid nitrogen tank, recovered, and diluted to 0.51×10^6 cells/mL with the incubation culture medium. […]
At the end of the incubation at the corresponding time point, the incubation plates were removed, from which 25 μL of a compound mixture with the cells was removed and added to sample plates containing 125 μL of stop buffer. […] All samples were mixed uniformly and then analyzed by the LC-MS/MS method.
The concentration of the compound of the present invention in the sample was semi-quantitatively determined by the liquid chromatography-tandem mass spectrometry (LC-MS/MS) method without a standard curve and quality control sample. […]

CC[C@H](C)[C@@H]([C@@H](CC(=O)N1CCC[C@H]1[C@H](OC)[C@@H](C)C(=O)N[C@H](C)[C@@H](O)c1ccccc1)OC)N(C)C(=O)[C@@H](NC(=O)[C@H](C(C)C)N(C)C(=O)OCc1ccc(NC(=O)[C@H](CCCNC(N)=O)NC(=O)[C@@H](NC(=O)CCCC(=O)NCCC(=O)N(C)CC(=O)N(C)CC(=O)N(C)CC(=O)N(C)CC(=O)N(C)CC(=O)N(C)CC(=O)N(C)CC(=O)N(C)CC(=O)N(C)CC(=O)N(C)CC(=O)N[C@H]2CCCCNC(=O)C[C@@H](C(=O)N[C@H]3CSCCC(=O)N4CN5CN(C4)C(=O)CCSC(C)(C)[C@@H](C(N)=O)NC(=O)[C@H](CCCCNC(=N)N)NC(=O)[C@H](Cc4c[nH]c6ccccc46)NC(=O)[C@@H](CC(=O)O)NC(=O)[C@@H]4CCCN4C(=O)[C@H](Cc4c[nH]cn4)NC(=O)[C@H](CC(C)C)NC(=O)[C@H](CSCCC5=O)NC(=O)[C@H](CC(C)C)NC(=O)[C@@H]4CCCN4C(=O)[C@H](CC(N)=O)NC(=O)[C@H](C(C)C)NC(=O)[C@H](CC(C)C)NC(=O)[C@@H]4C[C@@H](O)CN4C3=O)NC(=O)[C@H](CCCCNC(=N)N)NC2=O)C(C)C)cc1)C(C)C [Acetate salt of PDC_8] (I: [Sar][Sar][Sar][Sar][Sar][Sar][Sar][Sar][Sar][Sar]K[hArg]DC[Hyp]LVNPLCLHP[dD]W[hArg][Pen]-NH2 / II: V[Cit][PABC][NMeV]V[Dil][Dolaproine]-X1; lactam I:11-I:13; linker I:14-I:21-I:28 via TATA; linker I:N-II:N via X2)
AUC(0-t) [1]: 0.56 µM·h | C0 [1]: 2640 nM | clearance [1]: 13 mL/min/kg | half-life [1]: 0.2 h | Vd ([1]; read-out: Vdss): 0.19 L/kg | half-life (Stability in plasma [2]): > 9.63 h | half-life (Stability in plasma [3]): > 9.63 h | MMAE generation % ([4]; test time point 0): 0.1% | PDC_8 remaining % ([4]; test time point 0): 100.0% | MMAE generation % ([4]; test time point 0.5): 0.2% | remaining at 0.5 h, 2 µM ([4]; test time point 0.5, read-out: PDC_8 remaining %): 96.3% | MMAE generation % ([4]; test time point 1): 0.5% | remaining at 1 h, 2 µM ([4]; test time point 1, read-out: PDC_8 remaining %): 103% | MMAE generation % ([4]; test time point 2): 0.5% | remaining at 2 h, 2 µM ([4]; test time point 2, read-out: PDC_8 remaining %): 86.6% | MMAE generation % ([4]; test time point 4): 0.6% | remaining at 4 h, 2 µM ([4]; test time point 4, read-out: PDC_8 remaining %): 101% | MMAE generation % ([4]; test time point 24): 0.6% | remaining at 24 h, 2 µM ([4]; test time point 24, read-out: PDC_8 remaining %): 89.9% | MMAE generation % ([4]; test time point 48): 0.0% | remaining at 48 h, 2 µM ([4]; test time point 48, read-out: PDC_8 remaining %): 96% | MMAE generation % ([4]; test time point 72): 3.2% | remaining at 72 h, 2 µM ([4]; test time point 72, read-out: PDC_8 remaining %): 78% | half-life (Stability in whole blood): 9.31 h | half-life [5]: > 3.61 h | CLint scaled ([5]; read-out: CLint (liver)): < 17.8 mL/min/kg
